According to PMC10713658:

Molecular target: ABI2 (UniProt Q9NYB9)
Test: Flag co-IP, ABI2 Western blot
Settings: reference: wild type, OA-treated; sites S668,T670,S671

binding against the reference: weaker
Substance: GRAF1 (from UniProt Q9UNA1) AAA (S668A/T670A/S671A), OA-treated
